# T1: Endothelin receptor type A (ET A) on cells (human, UniProt P25101 21-427)
# T1 chain: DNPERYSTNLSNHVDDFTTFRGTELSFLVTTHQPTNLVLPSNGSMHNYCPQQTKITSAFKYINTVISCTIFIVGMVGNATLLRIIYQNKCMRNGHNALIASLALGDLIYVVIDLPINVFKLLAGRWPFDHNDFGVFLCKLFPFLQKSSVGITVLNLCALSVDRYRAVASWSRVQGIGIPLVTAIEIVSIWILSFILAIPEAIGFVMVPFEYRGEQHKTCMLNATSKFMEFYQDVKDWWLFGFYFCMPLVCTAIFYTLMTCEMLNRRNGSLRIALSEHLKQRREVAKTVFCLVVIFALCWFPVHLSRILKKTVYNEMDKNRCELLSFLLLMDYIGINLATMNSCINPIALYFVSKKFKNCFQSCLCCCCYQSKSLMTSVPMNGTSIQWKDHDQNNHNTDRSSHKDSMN
# Molecular target: T1, Endothelin receptor type A (ET A) on …
# Test: cell-based or functional assay
binder,measurement,value
"발굴항체 (anti-ET A human antibody, VH SEQ ID NO 12 / VL SEQ ID NO 13) fused to Cκ, scAb format (scFv, V domains shown) VH: EVQLVESGAEVRKPGASVKVSCKASGYTFTSSDINWIRQATGQGLEWMGYMNPKNGNTDYAQKFQGRISMTRDSSISTAYMELSSLRSEDTAVYYCAKDRYGSGTYGFGMDVWGPGTLVTVS VL: DIVMTQSPSAMSASVGDRVSITCRASQGINNYLAWFQQKPGKVPKRLMDVGSILQSGIPSRFRGRGSGTQFTLTISSLQAEDSGTYFCLQHNTYPLTFGPGTKVEIKR","K i; inhibition of signalling induced by 10 nM ET-1 (cytosolic Ca2+, Fura-2-AM 340/380 nm ratio) in ET A expressed CHO-K1 stable cell line",56 nM
same,"K i; inhibition of signalling induced by 10 nM ET-1 (cytosolic Ca2+, Fura-2-AM 340/380 nm ratio) in HT-29 colon cancer cells",51 nM
